According to patent CN108101970A:

Target: 抗Cry1Ab单克隆抗体
Assay: indirect competitive ELISA (chemiluminescence), anti-Cry1Ab mAb coated at 10 μg/mL; competitor: Cry1Ab mimic nanobody (phage 1.0×10^11 pfu or protein 10 μg/mL)

Work on Cry1Ab标准品 (from UniProt P0A370 29-607) yielded an IC50 of 0.0427 µg/mL.
